Results reported in US20040002124A1.

Assays:
[1] = molecular target: α6β1 integrin on human cells (human) (UniProt P23229); test: cell-based or functional assay
[2] = molecular target: αVβ3 integrin on cells (human) (UniProt P06756); test: cell-based or functional assay
Sequence of αVβ3 integrin on cells (human) (P06756 31-1048, chain 1 of 2): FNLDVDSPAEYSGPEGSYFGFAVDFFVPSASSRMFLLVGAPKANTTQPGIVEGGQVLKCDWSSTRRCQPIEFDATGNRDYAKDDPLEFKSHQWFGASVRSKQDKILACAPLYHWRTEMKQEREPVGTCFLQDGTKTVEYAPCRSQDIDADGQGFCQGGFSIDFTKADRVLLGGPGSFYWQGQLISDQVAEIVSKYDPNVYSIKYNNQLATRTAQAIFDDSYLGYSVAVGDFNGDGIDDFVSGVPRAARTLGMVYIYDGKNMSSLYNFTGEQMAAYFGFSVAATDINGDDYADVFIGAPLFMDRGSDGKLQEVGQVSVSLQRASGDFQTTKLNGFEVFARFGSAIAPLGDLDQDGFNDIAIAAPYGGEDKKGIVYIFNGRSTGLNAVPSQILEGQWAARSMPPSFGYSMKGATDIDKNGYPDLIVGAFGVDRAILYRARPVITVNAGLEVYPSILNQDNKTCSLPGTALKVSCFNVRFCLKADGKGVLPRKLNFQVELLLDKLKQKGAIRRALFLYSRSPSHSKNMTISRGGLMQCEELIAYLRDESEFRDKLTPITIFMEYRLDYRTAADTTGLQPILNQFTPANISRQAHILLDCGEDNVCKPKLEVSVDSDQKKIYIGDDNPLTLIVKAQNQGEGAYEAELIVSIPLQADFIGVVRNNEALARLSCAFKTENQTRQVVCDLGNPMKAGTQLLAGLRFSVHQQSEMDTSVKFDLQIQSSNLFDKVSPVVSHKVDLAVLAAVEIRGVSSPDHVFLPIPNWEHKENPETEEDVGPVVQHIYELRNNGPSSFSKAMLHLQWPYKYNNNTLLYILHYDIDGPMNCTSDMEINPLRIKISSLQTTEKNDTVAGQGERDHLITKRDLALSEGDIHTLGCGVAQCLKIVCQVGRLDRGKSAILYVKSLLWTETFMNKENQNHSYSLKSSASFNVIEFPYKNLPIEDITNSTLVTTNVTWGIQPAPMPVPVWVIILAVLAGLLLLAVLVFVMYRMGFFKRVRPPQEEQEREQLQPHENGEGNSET
Sequence of αVβ3 integrin on cells (human) (P05106 27-788, chain 2 of 2, further chain): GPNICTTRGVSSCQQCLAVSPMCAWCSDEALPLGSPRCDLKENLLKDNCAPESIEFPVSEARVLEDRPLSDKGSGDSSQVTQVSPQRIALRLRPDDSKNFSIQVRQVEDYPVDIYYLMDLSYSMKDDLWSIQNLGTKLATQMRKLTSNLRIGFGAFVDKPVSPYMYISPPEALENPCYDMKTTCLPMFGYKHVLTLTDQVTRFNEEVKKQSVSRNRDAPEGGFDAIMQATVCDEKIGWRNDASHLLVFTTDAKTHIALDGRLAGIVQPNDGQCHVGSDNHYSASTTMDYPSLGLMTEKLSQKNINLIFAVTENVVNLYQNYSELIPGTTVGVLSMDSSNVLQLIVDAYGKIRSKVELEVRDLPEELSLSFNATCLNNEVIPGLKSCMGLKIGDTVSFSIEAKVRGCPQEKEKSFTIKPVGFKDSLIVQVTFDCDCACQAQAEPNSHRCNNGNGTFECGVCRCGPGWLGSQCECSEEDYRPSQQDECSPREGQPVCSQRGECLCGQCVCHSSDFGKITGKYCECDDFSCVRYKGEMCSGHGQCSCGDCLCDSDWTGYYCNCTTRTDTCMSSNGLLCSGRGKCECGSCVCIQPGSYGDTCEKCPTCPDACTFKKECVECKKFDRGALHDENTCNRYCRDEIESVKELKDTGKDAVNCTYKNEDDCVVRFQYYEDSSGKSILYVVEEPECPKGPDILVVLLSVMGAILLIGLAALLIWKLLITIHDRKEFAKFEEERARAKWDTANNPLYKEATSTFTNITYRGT

Sequence of α6β1 integrin on human cells (human) (P23229 24-1130, chain 1 of 2): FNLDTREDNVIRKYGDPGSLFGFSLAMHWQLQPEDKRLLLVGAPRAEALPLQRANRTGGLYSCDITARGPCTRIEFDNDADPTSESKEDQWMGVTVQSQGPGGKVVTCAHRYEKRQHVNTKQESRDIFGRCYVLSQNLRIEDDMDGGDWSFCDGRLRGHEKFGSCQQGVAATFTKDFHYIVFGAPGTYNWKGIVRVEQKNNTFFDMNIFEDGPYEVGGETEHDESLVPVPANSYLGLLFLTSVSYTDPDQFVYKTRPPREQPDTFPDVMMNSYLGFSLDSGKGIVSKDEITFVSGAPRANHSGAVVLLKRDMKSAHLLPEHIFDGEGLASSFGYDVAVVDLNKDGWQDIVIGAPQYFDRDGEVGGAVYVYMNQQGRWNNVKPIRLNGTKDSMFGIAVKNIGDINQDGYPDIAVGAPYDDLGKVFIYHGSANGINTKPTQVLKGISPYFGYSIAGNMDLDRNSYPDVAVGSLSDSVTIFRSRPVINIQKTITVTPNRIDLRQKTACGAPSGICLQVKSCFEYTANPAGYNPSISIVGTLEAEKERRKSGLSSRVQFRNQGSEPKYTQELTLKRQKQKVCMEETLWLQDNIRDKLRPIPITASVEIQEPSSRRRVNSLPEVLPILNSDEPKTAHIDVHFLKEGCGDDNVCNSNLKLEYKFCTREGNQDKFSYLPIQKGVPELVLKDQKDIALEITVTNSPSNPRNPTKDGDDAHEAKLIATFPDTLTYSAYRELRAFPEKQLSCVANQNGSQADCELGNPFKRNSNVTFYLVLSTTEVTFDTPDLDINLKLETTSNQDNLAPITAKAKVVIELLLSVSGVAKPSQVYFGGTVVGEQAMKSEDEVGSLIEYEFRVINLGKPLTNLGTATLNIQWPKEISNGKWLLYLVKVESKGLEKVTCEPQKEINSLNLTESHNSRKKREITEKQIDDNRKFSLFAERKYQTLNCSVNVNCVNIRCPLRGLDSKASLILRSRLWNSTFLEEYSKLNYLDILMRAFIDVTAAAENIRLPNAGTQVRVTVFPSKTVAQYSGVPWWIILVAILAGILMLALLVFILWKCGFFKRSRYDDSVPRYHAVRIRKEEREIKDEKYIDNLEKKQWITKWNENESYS
Sequence of α6β1 integrin on human cells (human) (P05556 21-798, chain 2 of 2, further chain): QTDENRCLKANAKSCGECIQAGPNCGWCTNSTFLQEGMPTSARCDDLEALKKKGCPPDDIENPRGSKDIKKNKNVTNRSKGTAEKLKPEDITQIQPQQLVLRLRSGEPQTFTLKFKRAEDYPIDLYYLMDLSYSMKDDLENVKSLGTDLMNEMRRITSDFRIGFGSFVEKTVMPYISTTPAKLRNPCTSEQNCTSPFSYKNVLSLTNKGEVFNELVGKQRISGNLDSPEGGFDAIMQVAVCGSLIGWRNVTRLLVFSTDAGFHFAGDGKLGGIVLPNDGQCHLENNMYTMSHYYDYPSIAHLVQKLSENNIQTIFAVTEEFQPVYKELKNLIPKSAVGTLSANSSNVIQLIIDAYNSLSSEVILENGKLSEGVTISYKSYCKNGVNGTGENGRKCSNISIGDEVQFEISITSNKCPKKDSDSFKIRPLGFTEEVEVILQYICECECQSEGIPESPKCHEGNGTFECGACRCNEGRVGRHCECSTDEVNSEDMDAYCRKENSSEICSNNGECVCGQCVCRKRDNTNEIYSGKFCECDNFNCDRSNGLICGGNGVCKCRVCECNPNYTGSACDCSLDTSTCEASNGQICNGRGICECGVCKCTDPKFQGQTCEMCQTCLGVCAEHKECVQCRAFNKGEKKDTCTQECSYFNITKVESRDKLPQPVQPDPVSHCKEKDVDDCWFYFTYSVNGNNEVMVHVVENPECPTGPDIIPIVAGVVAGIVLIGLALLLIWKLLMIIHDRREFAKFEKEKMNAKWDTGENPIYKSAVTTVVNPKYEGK

| 1064SK fibroblast adhesion to laminin (A620), with anti-α6 antibody (20 µg/ml) [1] [A620] | 1064SK fibroblast adhesion to laminin (A620), without anti-α6 antibody [1] [A620] | inhibition of 1064SK fibroblast adhesion to laminin by anti-α6 antibody [1] [%] | relative binding capacity of HUVE cells on wild-type Cyr61 (5 µg/ml) after pre-incubation with 40 µg/ml anti-αvβ3 antibody (LM609); no pre-incubation = 100 [2] [%] | relative binding capacity of HUVE cells on wild-type Cyr61 (5 µg/ml) after pre-incubation with 1 mM RGD peptide; no pre-incubation = 100 [2] [%] | relative binding capacity of HUVE cells on wild-type Cyr61 (5 µg/ml) after pre-incubation with 2.5 mM EDTA; no pre-incubation = 100 [2] [%] | inhibition of 1064SK fibroblast adhesion by anti-α6 antibody (20 µg/ml) [1] [%] | Substance |
| --- | --- | --- | --- | --- | --- | --- | --- |
| 0.48 | 0.62 | 22 |  |  |  |  | laminin (ligand) |
|  |  |  | 42 | 50 | 22 | 78 | murine Cyr61 (from UniProt P18406 25-379) (ligand) |
